Assay results as given in US20190201542A1 (AbbVie / Abbott, published 2019).
Changes are numbered by the printed parent chain.

T1: human ASCL1 (human, UniProt P50553 1-236, limits assumed)
T1 construct: Transcription factor; also called hASCL1; immobilized human ASCL1
T1 sequence (looked up): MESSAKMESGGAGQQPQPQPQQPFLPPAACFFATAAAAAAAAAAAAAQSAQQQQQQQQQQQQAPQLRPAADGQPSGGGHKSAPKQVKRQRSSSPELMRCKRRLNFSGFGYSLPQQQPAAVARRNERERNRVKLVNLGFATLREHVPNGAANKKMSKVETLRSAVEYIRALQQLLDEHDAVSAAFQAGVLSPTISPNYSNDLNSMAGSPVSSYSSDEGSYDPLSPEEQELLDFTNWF

T2: human DLL3 (human, UniProt Q9NYJ7 27-492, limits assumed)
T2 construct: also called hDLL3; DLL3 protein
T2 sequence: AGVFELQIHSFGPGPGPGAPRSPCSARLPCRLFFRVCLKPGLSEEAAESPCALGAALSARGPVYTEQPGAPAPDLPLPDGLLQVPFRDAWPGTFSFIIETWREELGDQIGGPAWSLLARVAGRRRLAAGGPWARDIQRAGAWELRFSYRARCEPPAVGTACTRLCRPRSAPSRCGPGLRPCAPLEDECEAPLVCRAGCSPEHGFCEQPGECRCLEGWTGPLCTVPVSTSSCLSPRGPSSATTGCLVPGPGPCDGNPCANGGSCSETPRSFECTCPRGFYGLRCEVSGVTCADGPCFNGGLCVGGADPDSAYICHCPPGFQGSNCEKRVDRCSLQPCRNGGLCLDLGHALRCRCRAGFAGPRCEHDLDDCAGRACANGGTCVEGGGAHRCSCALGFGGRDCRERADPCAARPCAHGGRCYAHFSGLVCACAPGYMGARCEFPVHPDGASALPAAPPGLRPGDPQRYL

B1: SC72.93 (antibody, V domains shown)
VH: QVQLQQSGAELVRPGASVTLSCKASGYIFIDYEMHWVKQTPVHGLEWIGSIDPETGDTVYNQKFKGKATLTADKSSSTAYMELRSLTSEDSAVYYCSRGGLDYWGQGTTLTVSS
VL: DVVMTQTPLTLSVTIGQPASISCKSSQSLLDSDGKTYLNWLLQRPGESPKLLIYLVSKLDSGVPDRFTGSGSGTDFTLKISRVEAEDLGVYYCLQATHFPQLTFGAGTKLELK
notes: murine mAb; same VL as SC72.2
B2: SC72.63 (antibody, V domains shown)
VH: EVQLLQSGPELVKPGASVKMSCKASGYTLTDYNLHWVKQSHAKSLEWIGYINPYNGVTSYNQRFKGKATLTVNKSSSTAFMEFRSLTSEDSAVYYCVSLYYGDDPFACWGQGTLVTVST
VL: DIQMTQSPASLSASVGETVTMTCRASENIYSNLAWYQQKQGKSPQLLVYAATNLADDVPSRFSGSGSGTQFSLKINSLQPEDFGIYYCHHFYGSPLTFGAGTKLELK
notes: murine mAb
B3: SC72.52 (antibody, V domains shown)
VH: QVQLQQPGSVLVRPGASVKLSCKASGYTFTSYWMHWVKQRPGQGLEWIGEIYPNSGRTNYNEKFKGKATLTVDTSSSTAYVDLSSLTSEDSAVYYCHYYDDNYGYWGQGTTLTVSS
VL: DIVITQDELSNPVTSGESVSISCRSSKSLLYKDGKTYLNWFLQRPGQSPQLLIYLMSTRASGVSDRFSGSGSGTDFTLEISRVKAEDVGVYYCQQFVEYPLTFGAGTKLELK
notes: murine mAb
B4: SC72.28 (antibody, V domains shown)
VH: DVQLQQSGAELVRPGALVKLSCKASGFNIKDYLIHWVKQRPEQGLEWIGCIDPENGNTIYDPRFQGKAKITSDTSSTTAYLRLTSLTSEDTAVYYCGRGGLDYWGQGTTLTVSS
VL: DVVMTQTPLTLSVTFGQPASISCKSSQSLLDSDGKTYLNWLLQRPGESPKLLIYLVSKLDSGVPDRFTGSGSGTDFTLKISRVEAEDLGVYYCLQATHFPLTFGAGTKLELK
notes: murine mAb
B5: SC72.76 (antibody, V domains shown)
VH: QVQLKESGPGLVAPSQSLSITCTVSDFSLTNYAVHWVRQSPGKGLEWLGVIWSDGNTDYNAPFISRLSISKDNSKSQVFFKMNSLQADDTAIYYCASYGDSAYWGQGTLVTVSA
VL: DIVLTQSPASLTVSLGQRATISCRASQSVRTSNYSYMHWYQQKPGQPPKLLIKYASNLESGVPARFSGSGSGTDFTLNIHPVEEEDTATYYCQHHWEIPFTFGGGTKLEIK
notes: murine mAb
B6: SC16.147 (antibody, V domains shown)
VH: QIQLVQSGPELTKPGETVKISCKASGYTFTDYSLHWVKQALGKGLKWMGWINTETGEPAYADDFKGRFAFSLETSASTAYLQINDLKNEDTTTYFCGIYDGYAMDYWGQGTSVTVSS
VL: DIQMTQTASSLSASLGDRVTISCRASQDINNYLNWYQQKPDGTVKLLIYYTSRLHSGVPSRFSGSGSGTDYSLTISILEQEDIATYFCQQGDTLPWTFGGGTKLEIK
notes: murine mAb
B7: SC16.15 (antibody, V domains shown)
VH: QVQLQQSGAELAKPGASVKMSCKASGYTFTRYWIHWIKQRPGQGLEWIGYINPTTVYTEFNQNFKDKATLTADKSSTTASMQLSSLTSEDSAVYYCARGGSNFFDYWGQGTTLTVSS
VL: DIQMTQSPASLAASVGETVAITCRASENIYYNLAWYQQKQGKSPQLLIYTANSLEDGVPSRFSGSGSGTQYSLKINSMQPEDSATYFCKQAYDVPPTFGGGTKLEIK
notes: murine mAb
B8: SC16.137 (antibody, V domains shown)
VH: EVQLVESGGDLVKPGGSLKLSCAASGFTFSSYGMSWVRQTPDKRLEWVATISSGGSYTYYPDSVKGRFTISRDNAKNTLYLQMSSLKSEDTAMYYCARRRADAMDYWGQGTSVTVSS
VL: QIVLTQSPAIMSASLGEEITLTCSASSSVSYMHWYQQKSGTSPKLLIYSTSNLASGVPSRFSGSGSGTFYSLTISSVEAEDAADYYCHQWSSYHTFGGGTKLEIKR
notes: murine mAb
B9: SC16.143 (antibody, V domains shown)
VH: QVQLQQSGPELVKPGASVRISCKASGYTFTSYYIHWVKQRPGQGLEWIGWIYPGNGNTKYNEKFKGKATLTADKSSSTAYMQISSLTSEDSAVYFCARERWLLLWFAYWGQGTLVTVSA
VL: DVLMTQTPLSLPVSLGDQASISCRSSQSIVHSNGNTYLEWYLQKPGQSPKLLIYKVSNRFSGVPDRFSGSGSGTDFTLKISRVEAEDLGVYYCFQGSHVPLTFGAGTKLELK
notes: murine mAb
B10: SC16.140 (antibody, V domains shown)
VH: QVQLQQSGPELVRPGASVKMSCKASGYTFTSYWMHWVKQRPGQGLEWIGMIDPSNSETRLNQKFKDKATLNVDKSSNTAYMQLSSLTSEDSAVYYCAVMDYYFDYWGQGTTLTVSS
VL: DIVLTQSLASLAVSLGQRATISCRASKSVSTSGYSYMHWYQQKPGQPPKLLIYLASNLESGVPARFSGSGSGTDFTLNIHPVEDEDAATYYCQHSRELPFTFGGGTKLEIK
notes: murine mAb
B11: SC16.148 (antibody, V domains shown)
VH: QIQLVQSGPELKKPGETVKISCKASGYTLTNYGMNWVKQAPGKGLKWMGWINTYTGEPTYADDFKGRFAFSLETSARIVYLQINNLKNEDTATYFCAKYEAHEGFVYWGQGTLVTVSA
VL: QIVLTQSPAIMSASPGEKVTMTCSASSSVSYMYWYQQKPGSSPRLLIYDTSNLASGVPVRFSGSGSGTSYSLTISRMEAEDTATYYCQEWSNNPLTFGDGTKLELK
notes: murine mAb
B12: SC16.133 (antibody, V domains shown)
VH: QVQLKESGPGLVAPSQSLSITCTVSGFSLTNYAVHWVRQSPGKGLEWLGVIWSDGSTDYNAAFISRLSISKDNSKSQVFFKMNSLQADDTAMYYCARKKGGWFPWFAYWGQGTLVTVSA
VL: SIVMTQTPKFLLVSAGDRVTITCKASQSVSNDVAWYQQKPGQSPKLLIYCASNRYTGVPDRFTGSGYGTDFTFTISTVQAEDLAVYFCQQDYSSPLTFGAGTKLELK
notes: murine mAb
B13: SC16.144 (antibody, V domains shown)
VH: QIQLVQSGPELKKPGETVKISCKASGYTFTNYGMNWVKQAPGKGLKWVGWINTYTGEPTYADDFKGRFAFSLETSASTAYLQIDNLKNEDTATYFCARVGDYVGFDYWGQGTTLTVSS
VL: B12 VL with A34G, C50Y, T56N, L96W, A100G, L106I
notes: murine mAb
B14: SC16.130 (antibody, V domains shown)
VH: EVQLQQSGPELVKPGASVKMSCKASGYTFTSYVMHWVKQKPGQGLEWIGYINPYNDGTEYNEKFKGKATLTSDKSSSTAYMELSSLTSEDSAVYYCARGVYDGYSYFDYWGQGTTLTVSS
VL: DIQLTQSPASLSASVGETVTITCRASGSIHNYLAWYQQKQGKSPQLLVYNAKTLVDGVPSRFSGSGSGTQYSLKINSLQPEDFGYYYCQHFWTTPWTFGGGTKLEIK
notes: murine mAb
B15: SC16.136 (antibody, V domains shown)
VH: EVQLQQSGPELVKPGASVKMSCKASGYTFTSYVMHWVKQKPGQGLEWIGYINPYNDGTKYNEKFKGKATLTSDKSSSTAYMELSSLTSEDSAVYYCARDRSGYEDYYGMDYWGQGTSVTVSS
VL: B14 VL with L4M, S28N, Q45H, V55A, Y85S, T93S
notes: murine mAb
B16: SC16.131 (antibody, V domains shown)
VH: QVQLKESGPGLVAPSQSLSITCTVSGFSLTNYGVHWVRQPPGKGLEWLGVIWAGGITNYNSALMSRLSISEDNSKSQVFLKMNSLQTDDTAMYYCARNLGPYAMDYWGQGTSVTVSS
VL: DIQMNQSPSSLSASLGDTITITCHVSQNINVWLSWYQQKPGNIPKLLIQKASNLHTGVPSRFSGSGSGTGFTLTISSLQPEDIATYYCQQGQSYPFTFGSGTKLEIK
notes: murine mAb
B17: SC16.138 (antibody, V domains shown)
VH: QVQLKESGPGLVAPSQSLSITCTVSGFSLTDYGVSWIRQPPGKGLEWLGVVWGGGSTYYNSALKSRLSISKDNSKSQVFLKMNSLQTDDTAMYYCAKQRGQYGAYWGQGTLVTVSA
VL: DIQMTQSPASQSASLGESVTITCLASQTIGTWLAWYQQKPGKSPQLLIYSATSLADGVPSRFSGSGSGTKFSFKISSLQAEDFVSYYCQQLYSTPWTFGGGTKLEIK
notes: murine mAb
B18: SC16.135 (antibody, V domains shown)
VH: QVQLQQSGAELVRPGTSVKVSCKASGYAFTNYLIEWVKQRPGQGLEWIGVINPGSGGTNSNEKFKAKATLTADKSSSTAYMQLSSLTSADSAVYFCARSDYDYAFYAMDYWGQGTSVTVSS
VL: DIKMTQSPSSMYASLGERVTITCKASQDINRYLSWFQQKPGKSPKTLIYRANRLVDGVPSRFSGSGSGQDYSLTISSLEYEDMGIYYCLQYDEFPFTFGSGTKLEIK
notes: murine mAb
B19: SC16.141 (antibody, V domains shown)
VH: QVQLKQSGPGLVAPSQSLFITCTVSGFSLTSYEINWVRQPPGKGLEWLGVIWTGGSTNYNSALISRLSISKDNSKSLVFLKMNSLQTDDTAIYYCVRGVYAMDYWGQGTSVTVSS
VL: B18 VL with R31S
notes: murine mAb

biological target: T1, human ASCL1; assay: screen on immobilized hASCL1 or h293-hASCL1 cells

binding result | Binder
binds | B1
binds | B2
binds | B3
binds | B4
binds | B5

biological target: T2, human DLL3; assay: screen on immobilized hDLL3 or h293-hDLL3 cells
How it was run: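 Hybridoma supernatants from single cells of mice immunized with human DLL3 were screened after 10 days in culture. Binding by flow cytometry was scored positive when above the control. In the solid-phase ELISA, plates coated with DLL3-His at 0.5 μg/ml were probed with HRP anti-mouse IgG and TMB and read at OD 450.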

binding result | Binder
binds | B6
binds | B7
binds | B8
binds | B9
binds | B10
binds | B11
binds | B12
binds | B13
binds | B14
binds | B15
binds | B16
binds | B17
binds | B18
binds | B19
